Reference: PMC4832192, “Structural basis of DNA sequence recognition by the response regulator PhoP in Mycobacterium tuberculosis”

Key:
PhoP wild type [1] = biological target: T1, PhoP wild type (Mycobacterium tuberculosis, UniProt P71814 1-247); assay: ITC; 5 mM MgCl2; ITC: 20 mM HEPES pH 7.5, 100 mM NaCl, 5 mM MgCl2, 25 C, […]; conditions: protein: recombinant; tags: N-terminal His-tag removed with TEV; chain copies: 2
[2] = biological target: PhoPC (isolated effector/DNA-binding domain) (Mycobacterium tuberculosis, UniProt P71814 148-247); assay: ITC; 5 mM MgCl2; ITC: 20 mM HEPES pH 7.5, 100 mM NaCl, 5 mM MgCl2, 25 C, DNA titrated into protein; conditions: protein: recombinant; tags: His-tag removed (similar procedure); chain copies: 2
PhoP wild type [3] = biological target: T1, PhoP wild type; assay: X-ray crystal structure (2.4 A); Ca2+ at Asp71; 2:1 PhoP:DNA; ITC: 20 mM HEPES pH 7.5, 100 mM NaCl, 5 mM MgCl2, 25 C, […]; conditions: protein: recombinant; tags: N-terminal His-tag removed with TEV; chain copies: 2; G/C overhangs

Binder	Kd (PhoP wild type [1])	further results
DR (dsDNA) DNA 1: ACGATTCACAGCTGATTCACAGCATCTACG DNA 2: CGTAGATGCTGTGAATCAGCTGTGAATCGT	0.0192 ± 0.0028 µM	–
DRs3 (3-bp spacer) (dsDNA) DNA 1: AAGTACCTCACAGCACTTCACAGCTTTCAT DNA 2: ATGAAAGCTGTGAAGTGCTGTGAGGTACTT	0.433 ± 0.0175 µM	–
tri (three motifs) (dsDNA) DNA 1: GTACCTCACAGCACTTTCACAGCTTTCTCACAGCATCTATG DNA 2: CATAGATGCTGTGAGAAAGCTGTGAAAGTGCTGTGAGGTAC	0.0046 ± 0.0027 µM	–
tetra (four motifs) (dsDNA) DNA 1: GTACCTCACAGCACTTTCACAGCTTTCTCACAGCTGATTCACAGCATCTATG DNA 2: CATAGATGCTGTGAATCAGCTGTGAGAAAGCTGTGAAAGTGCTGTGAGGTAC	0.0022 ± 0.0007 µM	–
RD6 (dsDNA) DNA 1: AAGTACCTCACAGCACTTTCACAGCTTTCAT DNA 2: ATGAAAGCTGTGAAAGTGCTGTGAGGTACTT	–	Kd [2]: 0.188 ± 0.009 µM
RD6-half (dsDNA) DNA 1: CAGAAGTCACAGCACTTGGG DNA 2: CCCAAGTGCTGTGACTTCTG	–	Kd [2]: 12.2 ± 1.6 µM
crystal direct-repeat DNA (dsDNA) DNA 1: GATTCACAGCTGATTCACAGCATCTA DNA 2: CTAGATGCTGTGAATCAGCTGTGAAT	–	binding result (PhoP wild type [3]): binds
hisG (dsDNA) DNA 1: CGCGACCCGCAGCATGCTCACAGCTTTCGA DNA 2: TCGAAAGCTGTGAGCATGCTGCGGGTCGCG	0.0356 ± 0.0043 µM	–
ahpC (dsDNA) DNA 1: TTTGCCTGACAGCGACTTCACGGCACGATG DNA 2: CATCGTGCCGTGAAGTCGCTGTCAGGCAAA	0.104 ± 0.0072 µM	–
lpqA (dsDNA) DNA 1: GCACCTTCACCGCCCGCCCACAGCCACGCA DNA 2: TGCGTGGCTGTGGGCGGGCGGTGAAGGTGC	0.347 ± 0.0351 µM	–
